Data reported in the NTF2 design screens of Basanta et al. (2020).

Assay: protease stability score; higher = more stable; yeast display proteolysis, trypsin and chymotrypsin;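 note: relative to predicted unfolded state with 0 unfolded-like and 1 meaning tenfold more protease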

Sequence | protease stability score
SEEEEHSKFLAEILLELMRTGDWRTFEELVDPNARLEIIQGDFTIDIHGREEVSKFLKNEVEQFKNMRVELHRQSAQGNKLHIDGRLKVGDKSHELRIHINVINGKLKQVKIEID | 1.72
SEEEEHSLKIARQWVENVLTGDEHLLRKLADPDTRIIVDGRHYHGWRQEHKVLEEIRIHDMFEKDVEVQGDKIYMNGTVDGEINGKRTRSDVDLIILVVDGRIKQVEINVH | 1.12
SEEEEHTHRISRRFWRFLVTGDEDALLKNADPHVRLVIGDKHSHGRENFKRLLREWLEELGAKHLHIRDLEVQGNKVHTHGEMTVNGRNIETHIELVVIDGRHHSMEFRIG | -0.021
SEEEEHTRHMYELFWRILHTGDEKSFHELADPNVLLRVGDKNFHGREEAERFLHEYWERYKNMRIEMKTFDFQGNKVHSEGVININGVKIRSELELVVFDGRLHSVIVRHR | 2.43
SEEEEHVWEWAKLVIDLWQTGNEEIFKELVDPNARSEFDGVTIHGMHNDLKRIIEELREIRVRIEIHSVRVIDGVLDVDVKLRLHIGDKQREIKIRLHIVVIDGKLKSVHIDKH | 1.9
SEEEEHWHTLAHMIVHWWLTGDEDAFMELADPHVRFEQGDYESVGMENVRERWRMIKEEIRIHEIRVHDVRFINGVIEVDTRLIRTFNGVREEVDYRVEIVEYNGRVKRVKLEIR | 1.33
SEEEEIAERFKKLMFEATHTGDWHTFMRLADPHVRVDINGKERHGREHWVEHERRLGIDHTDIRIRREREINGVMHIDSQLILHFNGVTLTLDHKLILKKVDGKWILHELKVD | -0.054
SEEEEIAHRFRKTVVHALLTGDEDRLRELVDPNYRILIGDKELHGWKSMSEFTHEWRIDHVEIERESVFDGVAHHDIRVDTTVNGKRDTRIVRIIIQKVNGKWVIHSMEIH | 0.53
SEEEEIARELSEEVYRHWHTGDFRMLERYFDPHVRIIYDGRDYHGREIASTVLRETNKEWRTESMEVKDVKFINGKLHVDISSDTLYNGKRVSTSIKIVSVKVDGQWVIHQMKYV | 1.1
SEEEEIARKIADIFFKVMQTGDEDHWLELFDPHTRFESDFNGRTVEIHGRERVREWKRKLEEDLGLTRFEIILRDSHVVNGVIHMDIEVRINGKTRRWIIDLIVINGRVKSLRVEIR | 1.15
SEEEEIARRFISVWLHAFHTGDEKRLEEMIDPHVRVDYNGVEIIGRENWIEFMLTIMRNLGFNHIRVELDHLDFQGDKMRLETTLKRKVNGREERIDTRIHVKKIDGQWIFTHELYK | 0.795
SEEEEIIESFMKELRESHKTGDPTAIDRLADPNTRLLVNGKQHHGWEHILRFLEDLGANHIELEFRDSHLIGDKMHIHGQLVMHINGQRVTIKTHMILSKINGRWYLEHIELR | 1.81
SEEEEILDKLVKHFIHAFRTGDEDRLNELLDPDAKLVIEYGDKRLEHHGRENVLRAWVELIERIKGVRLEWKEIRPQGDFVESRTQLIVNGREVETEVEIIMFNGRFREFTVRIR | 2.11
SEEEEILETVAKKMVDILETGDEDKLTRLADPDVRHRIDVDGRDLSYHGREEINRFMHHWKREWRIDSITVHRVHVINGQIHIDIEVRETVGDKHVIVRRELIIVIVDGRVKRVEIIFR | 0.253
SEEEEILHKMAEDNIQMLQTGDEETLKRLLDPNVRIHIGEFRTHGMEKLSHWLLHLRIRDIRIHSMRIIDGVADIDGTVEIEQGDKRHTVNMRIFIIVINGKNHSFIFRWH | 1.76
SEEEEILRHILERFANVLHTGDFDWLSKMADPHVRFDVNGREFHGREEVIQAVRDWRERLGIKHLHVKDIRLQGDKMHLNGRMEFDGVIEDTRIIHQVVDGRLRSIEIRTK | 0.16
SEEEEILRHIVELLLHILITGNEHALRTLLDPNARVDINGVTIHGREQESHIILEEVERIDHMDLKIEHLHVQGDKVHTKVERTIHIGEKEIRIEEEINLVIFNGRLRVSILHVH | 0.97
SEEEEILRIALEIFIHLWQTGDEDMLKHYADPEVRVHFDGRDYHGMNDLQFFVHELRKRYPGIRLHIEHVEIEVYNGRVFIIIHQRLDFNGQVITEEVRLIVIKINGRWDIHSVKYHSH | 0.756
SEEEEILRRSVEVTLEAFKTGNERILREYLDPHVRFLYNGQEYHGWKDFVRFLINEVRRFDHVEIRLDHWEMQGEKAHFHGRLILDVNGRLEIFRVHIHLFKVDGKWTLRELRIE | 1.83
SEEEEIMQRLLELMLQVFKTGDWKSLTDLLDPHVRLRIHQGDKTLHHHGREEFTERLRKLDEHLGVSRIDVRDHDMHEINGVLIIHLELRVNGRKVHVLILAEKIDGRWLLKSMHLVWH | 1.42
SEEEEIRLDLARLWLELVLTGDEQVYEKLADPNVRFDVNGRELHGRETWIDLLLQFKNVVKRIELKRLDVQGDFVVLDTRLRLVVNGRTETYETWIIFYVVNGRIKEVEIRTT | 1.31
SEEEEISKELARLWLHLFFTGNEEKLTELFDPNARLIVGDKQRHGRERVIKIFHEWLLELGIDYLDIHHIEFQGEKVHMNTKVRQGDFETRTEVNLIIVNGRIKEVRFDLR | 1.19
SEEEEISKTAIELMIRALHTGDWQHWLHLADPHYRVNINGREHHGREDSLRIINELLELLGVERVELRLEDFRVIDGRIHIITKMHYNGVVTDNRLIMKKVDGKWQLDTVIVT | 1.05
SEEEEIVEKMARDLFEAMRTGDEDTLLKLLDPNVKHHWNGVEYHGWHDLHHWVERFKNMKVHFRINSVKVIGEKVHIKGELNLIFNGKIIRTDVDIHINLFNGRIKESTSDTN | 2.04
SEEEEIVKRFIELLDHVMKTGDEKFYEHMADPNTRVKQGEFEDHGREAFRWFLKEIRSKDVKTEHVELFDGRLRVEGRLLGVFNGQHVELHMILISVKVDGRWRVKMVIIH | 1.52

Sequence | protease stability score
SEEEEIVREALKIWFHAMITGDERTLNEMVDPNVRVDVDGKELIGRKHMVELLRRFKNITIRHWHIKHLDIQGDKIEIDTRLDVEVNGRQEILTEKFHARKVDGRWFLSTREER | 2.19
SEEEEIVRHANHLFTHAMNTGDWRLLKELFDPHTKILIDGQEHHGWSIIYRELRHIRIDHVEMRIRSVHTQGNKAHVDGEIIVEGTVNGVTHKTSNRVNLIIRKVDGRWIVESIDIH | 1.55
SEEEEIYHKLAEWSKRVLETGDWREWRKLADPNTRLHVHVNGRQLDHHGRELVLTIFLWLYKHLGVKHVDERDLDYYGNKIDIHVDDRYDGRTIHNRIILFIIDGKVTSTTVHIEHE | 1.38
SEEEEIYKEYAELMIHIIKTGDEDALRLLLDPNTQTFINGRNIHGMDEHIRHWRHFFKKFKNMRIEITRLEIQGDKVRIHMRIEQGDKILHLLFIIVIINGRNEEIEVRIHTQ | 1.69
SEEEEIYKRAHKFFADVFLTGNEKELEHMLDPNVRLHVNGQDHHGWTDVFRIFNFLGADHYDVKHLDIQGDKVDLHSEVDINGRTRRIIFHSLKVNGQWKITHVQVD | 1.24
SEEEEIYKRIADLFLQIFSTGDEDRLHRLADPDVKWEYGDKKNVGMKDVIHYFEHIWMHVERSDNTDVDLQGNKARVDMRSDIRIEINGRELRIKVSVLIIIVKFNGRWTVHSLRIE | 1.27
SEEEEKAKKWLEEVLRAEETGDEEKLLELADPNVRWIFNGVDVIGRKHFERNIRESLEKIPNMRIEHFHLHRMETIDGRIDMETEEDGIINGRDIRTRRRIIVVKVDGRWIIKSVHLI | 0.637
SEEEEKARRLSELITRSFLTGDEEELEELLDPNARNIYNGVIVHGREEVSRLFHEEWLRYGIDHVRLEDMHIDVQGDKVDFHIIMRSEFNGRVHHVRVEVHIEKVDGRWVMKRLELRFS | 0.977
SEEEEKAVKVTEEILHNLLTGDWERLAEMLDPDTWLHQGDKHRHGREQVLKHFSDFYNEIRIEDFKIHDITVQGEKAISHGHVKMRYGDKVRETSVRFVLIVIDGRIDQIEVHVH | 1.8
SEEEEKFHRFYKLLLEMILTGNWKEVWDLMDPNARLDVIIGDKSIHNHGWKVILEFMREIRIRHVHIKHMEVYNGRIHLDEHRDIHFNGRDIRSDVIIHAVVIDGRFHHERIEFL | 0.751
SEEEEKIKKLHTDWLHLLLTGDEDRLKQLMDPHAKISIEQGDFHLDLHGREDIIEFYWEERHRIDHLDIRVRHIEVWNGKIITKEENRIDFNGRKHVTEVDLEIEIVDGKFRSLHIRIH | 1.02
SEEEEKLKKILELLRHRILTGDEEFYSRLIDPNARVNIDGKTTHGREEMEHILRELNEDYGVKHHTVRSTEIFDGVNWIRGEFRVNGRSRTVEIIIWVYNGRLKSSEFRFD | 1.39
SEEEEKRRKSAEDFMRSLVTGDEDDLSRLADPHVRLDINGKEHHGMEEFKRLLSEFWEEMGIKHVRIRRIDIQGNKAILHTEVDWNGRIHEVTIDVQTYNGRIKSVKVIIH | 1.24
SEEEEKTRRILEELFELFLTGDEQRTLELFDPNMRFHLHYGDKELHLHGREEVAKFLHDHRHRVKNVKFHLKKEEVQGDKAILYIRVEIDGQEVYLNIEIHVIDGKLHEVVERIHEV | 2.25
SEEEELADIALREIIETLRTGNEELLDKLVDPHVKILFDGREFIGRKDYLRLLREIRIHHVTIEDMEVQGEKVHINMRVDGEINGRRNDYKVQLIALKFNGKWIIEHEHLH | 1.3
SEEEELAERFYEKFLRLARTGDEDELKRLFDPHVRHYVDGRELIGRELLVKFLIEWRVHDSEIREVRIQGDKLWFNTVIHGNFNGVETKQEMEVRSRKIDGQWFATEVQIK | 0.694
SEEEELAERMIRIWQKDIRTGNEESLSKFIDPNVRNEYGDKTHHGRHVFADVIRRILDELGVTNVHSRLTRMEIQGDKVRVDVQINIDGQEYRIEVHFEKVNGRWNVTSWNIR | 0.698
SEEEELALKLLRVLWHHLETGDEETLNHLLDPDTRWNVDGVNFHGMRDFVRHFRERLKHARLHSLHVHRFSMINGVMHFDGEVNEIYGDKTERYRVRIELVVVNGRWKELYLHKI | 1.55
SEEEELALRFWHELTHYRETGDEESLLKYVDPHVRLDVNGKDIHGMEEIARFLVEIRVKIETHVHDIKLINGKIHMDVRLHIEFDIDGKNVKRRHESRVIVRKVNGKWIIKTFELT | 0.53
SEEEELAMRIAREVLELWYTGDEDRLTELADPNTRVIFQYGDKEISFHGREWYSKIMLEWRIERVDLRSERAIGDKYELDVHFVGHINGKRHNYRFHIHMLVVNGKLKNIEVRVK | 2.2
SEEEELAREAMRILIEAIVTGDEDEIRRLLDPHVRIEVHIGDKSIKNHGRESMVRILRWLGVDHIDIKRFRLEIQGEFLHLDLDTEFHFNGVTVRTRINNRSLKINGRWQTKEVKYFIE | 1.27
SEEEELARHAFELWTRSMLTGDEHTMEKLFDPNTRLDINGRDHVGRELFLEFIHRLLREWRFRDVKLEDVKSVNGVLFLKVRLDVEFDGRRYSLTVELIVTKINGKWHMTEIKMH | 0.353
SEEEELARHIFELWIKTLRTGDEKLLRELADPHVQVILLVDGRHLENHGWEEFVRIFKEWRIHRVHVHDVKVFENRIHMDGTIDYEIGDKRFITKRIVDLVVINGRLKRLEIQIH | 2.66
SEEEELARHSIEVMIRLYETGDWDSSVDMADPHTRVHINGRDLIGREFYSEWSKEHLKRYKNATIILEDHEVQGNKVKVRIRIIVGDKESEIIFYILKINGRWIWHTVEVR | 2.19
SEEEELARQVLELWIHWYQTGDEESFRKNIDPHTRFDINGKHLHGREHVSKHLHDRAREMRIHDVFIKDVRLQGEKARMDGVIDGTIGDKRHEFKVEVTVQSINGRIDHLEFRFR | 1.18
